Results: patent US20120183532A1

Target: IL-1β receptor of the hepatic sinusoidal endothelium (HSE) cells (mouse) (UniProt P13504)
Experiment: cell-based or functional assay

Chain of UniProt P13504 (P13504 20-576): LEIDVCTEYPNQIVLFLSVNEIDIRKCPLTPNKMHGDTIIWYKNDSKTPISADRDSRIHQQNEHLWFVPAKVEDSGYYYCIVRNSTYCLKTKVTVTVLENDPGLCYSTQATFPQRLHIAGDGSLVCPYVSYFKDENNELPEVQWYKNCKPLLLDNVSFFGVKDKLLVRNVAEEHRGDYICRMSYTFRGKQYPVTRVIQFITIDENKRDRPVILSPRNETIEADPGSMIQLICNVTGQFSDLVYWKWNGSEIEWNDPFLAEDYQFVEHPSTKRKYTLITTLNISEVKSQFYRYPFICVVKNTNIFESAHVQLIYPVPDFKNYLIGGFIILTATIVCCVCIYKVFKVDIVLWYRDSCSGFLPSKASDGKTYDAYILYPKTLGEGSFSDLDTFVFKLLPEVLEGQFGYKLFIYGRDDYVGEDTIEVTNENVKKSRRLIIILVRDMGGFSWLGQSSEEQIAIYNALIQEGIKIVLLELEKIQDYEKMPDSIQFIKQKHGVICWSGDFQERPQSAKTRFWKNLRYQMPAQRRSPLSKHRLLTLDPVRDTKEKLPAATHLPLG

recombinant C. albicans Kre9 (CaKre9) protein expressed in E. coli, fused to an HSV tag and 6 histidine residues (from UniProt O74226 22-271)
increase of the tumor adhesion (B16M cells) to the HSE with respect to the control: > 150%
